Consider three molecules from article PMC6131548, “Molecular basis for disassembly of an importin:ribosomal protein complex by the escortin Tsr2” (Nature Communications, 2018).

What all share (settings): both partners purified
The target of one experiment is T1, hTsr2E64G (ITC) (human, UniProt Q969E8 1-191, E64G).
T1 construct: human Tsr2 with the Diamond-Blackfan anemia-linked mutation E64G; also called E64G-DBA variant; hTsr2E64G mutant; source: E. coli BL21
T1 sequence (looked up): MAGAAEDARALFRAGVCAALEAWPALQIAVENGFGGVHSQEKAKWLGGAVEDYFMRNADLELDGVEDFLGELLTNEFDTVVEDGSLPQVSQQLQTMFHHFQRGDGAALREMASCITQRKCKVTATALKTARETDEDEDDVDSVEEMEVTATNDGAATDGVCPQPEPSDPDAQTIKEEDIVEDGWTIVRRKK
The experiment in a line: ITC; VP-ITC; 20–40 µM Tsr2 variant in the cell, 400–800 µM ESS2 peptide in the syringe; 25 °C, 20 mM NaPi pH 7.1, 1 mM DTT, 10 µM EDTA.

Another experiment concerns the target T2, hTsr2 (ITC) (human, UniProt Q969E8 1-191).
T2 construct: human Tsr2; probably made like the NMR constructs; also called WT hTsr2; human Tsr2; source: E. coli BL21
T2 sequence (looked up): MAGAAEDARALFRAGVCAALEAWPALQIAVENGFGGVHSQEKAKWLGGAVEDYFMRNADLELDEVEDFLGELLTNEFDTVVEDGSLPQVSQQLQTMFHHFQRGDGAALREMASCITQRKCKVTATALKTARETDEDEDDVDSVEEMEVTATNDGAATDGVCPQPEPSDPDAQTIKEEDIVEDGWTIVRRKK
Described as above.

For a further experiment, the target named is T3, Tsr2-N (NMR) (S. cerevisiae (yeast), UniProt Q06672 1-152).
T3 construct: Used unlabeled or 13C,15N-labeled; also called N-terminal domain of Tsr2; source: E. coli BL21 (DE3) CodonPlus-RIL, purified (HisTrap, TEV, Superdex 75); not shown: (His)6-tagged GB1 domain, N-terminal, cleaved
T3 sequence (looked up): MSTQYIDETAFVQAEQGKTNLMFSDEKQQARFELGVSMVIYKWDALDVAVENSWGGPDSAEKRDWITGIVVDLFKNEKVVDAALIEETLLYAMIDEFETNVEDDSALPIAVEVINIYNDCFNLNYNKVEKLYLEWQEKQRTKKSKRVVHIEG
The experiment in a line: NMR titration; stepwise titration of the unlabeled component to the labeled one (Tsr2-N, ESS2 peptide), followed by 2D 15N,1H-HSQC; 293.15 K, NMR buffer.

Experiment [1] deals with T4, Tsr2 of the recombinant Tsr2:eS26 complex (XL-MS) (S. cerevisiae (yeast), UniProt Q06672 1-205).
T4 construct: Tsr2, S. cerevisiae; source: recombinant Tsr2:eS26 complex, 1 mg/ml in 50 mM HEPES
T4 sequence (looked up): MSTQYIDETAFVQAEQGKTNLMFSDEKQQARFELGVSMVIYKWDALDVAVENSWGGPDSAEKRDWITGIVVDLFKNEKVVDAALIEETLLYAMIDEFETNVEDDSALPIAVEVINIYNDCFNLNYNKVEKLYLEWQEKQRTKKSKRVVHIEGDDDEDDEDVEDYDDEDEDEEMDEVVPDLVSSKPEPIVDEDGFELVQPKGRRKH
Description: cross-linking; recombinant Tsr2:eS26 complex, 1 mg/ml in 50 mM HEPES; DSS, PDH/DMTMM or ADH/DMTMM, 37 °C; digestion, SEC, LC-MS/MS (XL-MS).

B1: human ESS2 peptide (peptide)
chain: RFRPAGAAPRPPPKPM
modifications: Human limits are not printed. They are taken by ungapped alignment to the yeast ESS2 construct in PDB 6G04 (eS26 residues 100-119; the text defines ESS2 as 99-119), running to the human C-terminus. …
Take B1: the dissociation constant (Kd) came to 90 µM in the experiment with hTsr2E64G (ITC) and 2 µM with hTsr2 (ITC).

B2: ESS2 peptide (peptide, UniProt P39938 100-119, looked up)
peptide: RPRFNRENKVSPADAAKKAL
notes: eukaryotic-specific segment 2 of eS26 (Rps26A), S. cerevisiae, residues 100-119 as deposited; ESS2 is defined as 99-119 in the results, the deposited peptide as 100-119; also called eS26-ESS2; S26A(100-119); source: E. coli BL21 (DE3) CodonPlus-RIL, cleaved from (His)6-GB1 by TEV, purified by reverse-phase HPLC (C8); not shown: (His)6-tagged GB1 domain, N-terminal, cleaved
B2: the binding result in the experiment with Tsr2-N (NMR) is on record as “binds”.

B3: eS26 of the recombinant Tsr2:eS26 complex (XL-MS) (natural protein)
chain: not shown
notes: ribosomal protein eS26 (Rps26A), S. cerevisiae; source: recombinant Tsr2:eS26 complex, 1 mg/ml in 50 mM HEPES
For the molecule B3, the binding result in experiment [1] was “binds”.
